Source: patent US20150010525A1, “Catalytic Tagging System to Study Macro-Molecular Interactions Using Engineered Ubiquitin Ligase and Ubiquitin-Like Proteins to Facilitate Substrate Identification” (THE REGENTS OF THE UNIVERSITY OF CALIFORNIA, priority 2012, published 2015)
Each block holds one molecule with its values, some of them ahead of it.

Biological target: T1, cIAP1 (Homo sapiens, UniProt P61081+Q13490)
T1 construct: cIAP1(ΔR) (residues 1-555); GST (N, cleaved yes); made in house; host or cells: E. coli BL21 (DE3)
Experiment: SILAC mass spectrometry screen for cIAP1 substrates with NEDDylator^cIAP1 in apoptotic Jurkat cell lysate
Assay type: biochemical
Conditions: Light lysate with NEDDylator^cIAP1, Heavy lysate with Ubc12
Protocol: Jurkat cells were grown in media containing either light or heavy isotopes of lysine and arginine and induced to undergo apoptosis with STS. Light cell extracts were incubated with the respective catalytic tagging system for each of the two IAPs and the heavy extracts labeled only with the wild-type NEDD8 E2, Ubc12. […] 100 mg ^13C6^15N2 L-Lys.2HCl and 86 mg ^13C6 L-Arg.HCl (Cambridge Isotope) were added to the same amount of medium to generate the “Heavy” medium. Jurkat cells were cultured separately in “Light” or “Heavy” medium for 7 days to allow for thorough isotope incorporation. For IAP substrate identification, 400 million cells were treated with 2 μM STS for 4 hours, harvested, lysed in M-PER mammalian protein extraction buffer (Thermo/Pierce) in the presence of protease inhibitors (100× ProteoBlock cocktail, Fermentas) and mixed with cell lysate prepared from 400 million untreated cells. […] Purified NEDDylated proteins were trypsinized and analyzed with tandem mass spectrometry (LC-MS/MS).
For SILAC experiments, Jurkat cells were cultured separately in “Light” (supplemented with regular Lys and Arg) or “Heavy” (supplemented with ^13C6^15N2 Lys and ^13C6 Arg) medium for 7 days to allow for thorough isotope incorporation. Apoptotic “Light” and “Heavy” cell extracts were prepared individually. The lysates were cleared by spinning and then diluted in 50 mM HEPES pH 7.4, 150 mM NaCl to 5 mg/ml and supplemented with 5 mM ATP, 10 mM MgCl2. Endogenous NEDD8 E1 is cell lysate was used to catalyze the reaction. HB-NEDD8 was added to both lysate at mass ratio 1:500; the catalytic tagging system was added to the “Light” lysate at mass ratio 1:1000. Equal molar of Ubc12 was added to the “Heavy” lysate. […] NEDDylated proteins were separated by one-dimensional SDS-PAGE, and trypsinized for LC-MS/MS analysis.
For liquid chromatography—Tandem mass spectrometry (LC-MS/MS) analysis, the tryptic peptides were first desalted and concentrated with a C18 Ziptip (Millipore). LC-MS/MS was carried out by reverse phase LC interfaced with a LTQ-Orbitrap (ThermoFisher Scientific) hybrid mass spectrometer. A nanoflow HPLC (NanoAcquity UPLC system, Waters Corporation) was equipped with a trap column (180 μm×20 mm, 5 μm SymmetryC18, from Waters) and an analytical column (100 μm×100 mm, 1.7 μm BEH130C18, from Waters). Peptides were eluted over a linear gradient from 2% solvent A (0.1% formic acid in water) to 35% solvent B (0.1% formic acid in acetonitrile) at 350 nL/min over 35 min. MS and MS/MS spectra were acquired in a data-dependent mode with MS spectra acquired in the Orbitrap at 30,000 resolving power and 6 CID MS/MS spectra acquired per MS in the LTQ linear ion trap. Dynamic exclusion was set at 90 seconds to prevent repeated MS/MS on the same precursor ion.
The identified peptides were searched against a random decoy protein database for evaluating the false positive rates. […] The decoy peptides were removed from the data. Protein IDs were assigned only when at least two unique peptides were identified from the same protein. For SILAC experiment, Light/Heavy ratios for the identified peptides were calculated, using ProteinProspector. The media Light/Heavy ratios of all the peptides identified for each protein were used to represent the Light/Heavy ratio of the protein.

T1 sequence (Q13490+P61081 fused): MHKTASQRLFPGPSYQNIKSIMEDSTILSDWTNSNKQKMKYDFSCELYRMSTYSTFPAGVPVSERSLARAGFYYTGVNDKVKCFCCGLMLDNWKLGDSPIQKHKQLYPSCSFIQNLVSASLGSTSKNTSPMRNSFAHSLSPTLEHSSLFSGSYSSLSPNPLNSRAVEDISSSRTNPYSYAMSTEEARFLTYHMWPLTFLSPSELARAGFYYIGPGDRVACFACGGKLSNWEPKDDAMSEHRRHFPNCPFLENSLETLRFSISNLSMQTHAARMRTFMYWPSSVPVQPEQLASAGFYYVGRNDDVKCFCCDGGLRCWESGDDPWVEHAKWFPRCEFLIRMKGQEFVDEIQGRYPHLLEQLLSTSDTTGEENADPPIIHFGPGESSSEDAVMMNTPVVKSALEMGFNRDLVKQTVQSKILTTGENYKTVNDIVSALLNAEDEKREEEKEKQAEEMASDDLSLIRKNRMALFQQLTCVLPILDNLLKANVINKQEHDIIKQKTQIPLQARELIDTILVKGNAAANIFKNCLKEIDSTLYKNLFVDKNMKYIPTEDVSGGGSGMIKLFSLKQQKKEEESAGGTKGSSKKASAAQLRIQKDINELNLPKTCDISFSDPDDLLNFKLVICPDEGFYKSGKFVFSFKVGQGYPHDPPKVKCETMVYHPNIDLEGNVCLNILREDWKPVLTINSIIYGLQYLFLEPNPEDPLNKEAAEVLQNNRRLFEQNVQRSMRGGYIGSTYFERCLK

- L/H (Light/Heavy ratio): 8.78
Molecule: ELAV-like protein 1: potential cIAP1 substrate

- L/H (Light/Heavy ratio): 5.31
Molecule: Eukaryotic initiation factor 4A-I: potential cIAP1 substrate

- L/H (Light/Heavy ratio): 5.21
Molecule: Glyceraldehyde-3-phosphate dehydrogenase: potential cIAP1 substrate

- L/H (Light/Heavy ratio): 5.22
Molecule: Hemoglobin subunit alpha: potential cIAP1 substrate

- L/H (Light/Heavy ratio): 4.15
Molecule: Heterogeneous nuclear ribonucleoprotein U: potential cIAP1 substrate

Molecule: Isocitrate dehydrogenase [NAD] subunit beta, mitochondrial: potential cIAP1 substrate
- L/H (Light/Heavy ratio): 14

- L/H (Light/Heavy ratio): 7.52
Molecule: Non-POU domain-containing octamer-binding protein: potential cIAP1 substrate

- L/H (Light/Heavy ratio): 26.9
Molecule: TAR DNA-binding protein 43: potential cIAP1 substrate

- L/H (Light/Heavy ratio): 22.2
B1: Pre-mRNA-processing factor 19: potential cIAP1 substrate (protein, UniProt Q9UMS4 2-504, looked up)
Pre-mRNA-processing factor 19: SLICSISNEVPEHPCVSPVSNHVYERRLIEKYIAENGTDPINNQPLSEEQLIDIKVAHPIRPKPPSATSIPAILKALQDEWDAVMLHSFTLRQQLQTTRQELSHALYQHDAACRVIARLTKEVTAAREALATLKPQAGLIVPQAVPSSQPSVVGAGEPMDLGELVGMTPEIIQKLQDKATVLTTERKKRGKTVPEELVKPEELSKYRQVASHVGLHSASIPGILALDLCPSDTNKILTGGADKNVVVFDKSSEQILATLKGHTKKVTSVVFHPSQDLVFSASPDATIRIWSVPNASCVQVVRAHESAVTGLSLHATGDYLLSSSDDQYWAFSDIQTGRVLTKVTDETSGCSLTCAQFHPDGLIFGTGTMDSQIKIWDLKERTNVANFPGHSGPITSIAFSENGYYLATAADDSSVKLWDLRKLKNFKTLQLDNNFEVKSLIFDQSGTYLALGGTDVQIYICKQWTEILHFTEHSGLTTGVAFGHHAKFIASTGMDRSLKFYSL

- L/H (Light/Heavy ratio): 8.75
B2: Putative annexin A2-like protein: potential cIAP1 substrate (protein, UniProt A6NMY6 2-339, looked up)
Putative annexin A2-like …: STVHEILCKLSLEGDHSTPPSAYGSVKAYTNFDAERDALNIETAIKTKGVDEVTIVNIVTNRDNAQRQDIVFSYQRRTKKELASALKSALSGHLETVILGLLKTPAQYDASELKASMKGLGTDEDSLIEIICSRTNQELQEINRVYKEMYKTDLEKDIISDTSGDFRKLMVALAKGRRAEDGSVIDYELIDQDAQDLYDAGVKRKGTDVPKWISIMTERSVPHLQKVFDRYKSYSPYDMLESIRKEVKGDLENAFLNLVQRIQNKPLYFADQLYDSMKGKGTRDKVLIRIMVSRSEVDMLKIRSEFKRKYGKSLYYYIQQDTKGDYQKALLYLCGGDD

- L/H (Light/Heavy ratio): 20.7
B3: Heterogeneous nuclear ribonucleoprotein A0: potential cIAP1 substrate (protein, UniProt Q13151 1-305, looked up)
Heterogeneous nuclear …: MENSQLCKLFIGGLNVQTSESGLRGHFEAFGTLTDCVVVVNPQTKRSRCFGFVTYSNVEEADAAMAASPHAVDGNTVELKRAVSREDSARPGAHAKVKKLFVGGLKGDVAEGDLIEHFSQFGTVEKAEIIADKQSGKKRGFGFVYFQNHDAADKAAVVKFHPIQGHRVEVKKAVPKEDIYSGGGGGGSRSSRGGRGGRGRGGGRDQNGLSKGGGGGYNSYGGYGGGGGGGYNAYGGGGGGSSYGGSDYGNGFGGFGSYSQHQSSYGPMKSGGGGGGGGSSWGGRSNSGPYRGGYGGGGGYGGSSF

- L/H (Light/Heavy ratio): 8.76
B4: Rho GDP-dissociation inhibitor 2: potential cIAP1 substrate (protein, UniProt P52566 2-201, looked up)
Rho GDP-dissociation …: TEKAPEPHVEEDDDDELDSKLNYKPPPQKSLKELQEMDKDDESLIKYKKTLLGDGPVVTDPKAPNVVVTRLTLVCESAPGPITMDLTGDLEALKKETIVLKEGSEYRVKIHFKVNRDIVSGLKYVQHTYRTGVKVDKATFMVGSYGPRPEEYEFLTPVEEAPKGMLARGTYHNKSFFTDDDKQDHLSWEWNLSIKKEWTE
